Source: patent US6899878 (GENETICS INSTITUTE, dated 2005)
Residue numbers refer to the chain shown, from its start. Ends that are not written are not given here.

T1: IL-1-R intracellular ligand protein encoded by clone 14w (interaction trap prey) (human, UniProt P17655 450-700)
T1 construct: Prey fusion expressed from pJG4-5 in yeast
T1 sequence: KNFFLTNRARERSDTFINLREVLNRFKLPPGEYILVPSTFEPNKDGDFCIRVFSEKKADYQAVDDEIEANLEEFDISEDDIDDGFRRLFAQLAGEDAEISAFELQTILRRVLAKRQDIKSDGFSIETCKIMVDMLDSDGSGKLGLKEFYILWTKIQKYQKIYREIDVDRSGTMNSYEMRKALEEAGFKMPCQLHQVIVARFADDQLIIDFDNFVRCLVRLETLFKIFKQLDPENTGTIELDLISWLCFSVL

T2: IL-1-R intracellular ligand protein encoded by clone 19w (interaction trap prey) (human, UniProt Q92626 1304-1479)
T2 construct: Prey fusion expressed from pJG4-5 in yeast; believed to be a partial clone of a longer protein
T2 sequence: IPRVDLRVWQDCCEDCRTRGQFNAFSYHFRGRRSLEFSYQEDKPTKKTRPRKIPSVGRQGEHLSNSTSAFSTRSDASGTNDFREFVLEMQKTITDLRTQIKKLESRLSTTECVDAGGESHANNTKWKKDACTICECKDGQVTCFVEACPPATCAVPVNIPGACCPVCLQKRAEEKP

B1: IL-1-R intracellular ligand protein encoded by clone 31w (interaction trap prey) (other, not shown: large carriers)
chain: KKGGKTEQDGYQKPTNKHFTQSPKKSVADLLGSFEGKRRLLLITAPKAENNMYVQQRDEYLESFCKMATRKISVITIFGPVNNSTMKIDHFQLDNEKPMRVVDDEDLVDQRLISELRKEYGMTYNDFFMVLTDVDLRVKQYYEVPITMKSVFDLIDTFQSRIKDMEKQKKEGIVCKEEVGGVLELFPINGSSVVEREDVPAHLVKDIRNYFQVSPEYFSMLLVGKDGNVKSWYPSPMWSMVIVYDLIDSMQLRRQEMAIQQSLGMRCQKMSMQAMVTIVTTKDTRMVTRMTTVIMRVITMDTLTEQKYVTLDSASFLCSC
notes: Prey fusion expressed from pJG4-5 in yeast; believed to be a partial clone of a longer protein
B2: IL-1 receptor p80 (type I) amino acids 477 to 527, wild-type bait from plasmid EG202-IL1R (477-527) (receptor, human, UniProt P14778 494-544, looked up)
chain: QDYEKMPESIKFIKQKHGAIRWSGDFTQGPQSAKTRFWKNVRYHMPVQRRS
modifications: also: fused to LexA (pEG202 bait), residues not given here
notes: range 477-527; positions may be shifted against the UniProt entry; also called WT; original bait; not shown: LexA, fusion partner of baits made in vector pEG202
B3: IL-1 receptor p80 (477-527) mutant bait R518K (receptor, human, UniProt P14778 494-544, looked up)
chain: B2 chain with R42K
modifications: also: fused to LexA (pEG202 bait), residues not given here
notes: range 477-527; not shown: LexA, fusion partner of baits made in vector pEG202
B4: IL-1 receptor p80 (477-527) mutant bait W514A (receptor, human, UniProt P14778 494-544, looked up)
chain: B2 chain with W38A
modifications: also: fused to LexA (pEG202 bait), residues not given here
notes: as for B3
B5: IL-1 receptor p80 (477-527) mutant bait K515R (receptor)
chain: B2 chain with K39R
modifications: also: fused to LexA (pEG202 bait), residues not given here
B6: IL-1 receptor p80 (477-527) mutant bait Y519S (receptor, human, UniProt P14778 494-544, looked up)
chain: B2 chain with Y43S
modifications: also: fused to LexA (pEG202 bait), residues not given here
notes: as for B3
B7: bicoid (unrelated bait) (other, UniProt P09081 2-160, looked up)
chain: AQPPPDQNFYHHPLPHTHTHPHPHSHPHPHSHPHPHHQHPQLQLPPQFRNPFDLLFDERTGAINYNYIRPYLPNQMPKPDVFPSEELPDSLVMRRPRRTRTTFTSSQIAELEQHFLQGRYLTAPRLADLSAKLALGTAQVKIWFKNRRRRHKIQSDQHK

What was measured:
bicoid (unrelated bait) = biological target: B7; experiment: yeast interaction trap, bait specificity test
Source text: (§1) A WI38 cDNA library was transformed into the reporter strain (EGY48/pSH18-34) containing the bait plasmid EG202-IL1R (477–527). 1.3 million primary transformants were harvested and 7 million colonies were screened. 192 galactose-dependent colonies were isolated. Among these, 51 clones were bait specific (i.e., interacted specifically with the original bait, but not with an unrelated bait, bicoid). These clones were then subjected to DNA sequence analysis. Clones 19w was isolated 6, times, clone 31w twice and clone 14w once.

[1] = biological target: B2; experiment: yeast interaction trap, LacZ blueness on plates
Method: (§2) Mutations that abolish IL-1R signaling ere introduced into the original bait plasmid, EG202-IL-1R (477–527) (with following amino acid substitutions: F513A, W514A, K515R, R518K, and Y519S) and the ability of the IL-1R intracellular ligands to interact with these mutant proteins was tested in the interaction trap. EGY48 carrying pSH18-34 (lexAop-LacZ) were cotransformed with two plasmids: one carrying 14w, 19w or 31w; the other with bait, EG202-IL1R (477–527), either wild-type or one of the mutants, transformants were then streaked onto CM ura⁻his⁻trp⁻ plates containing galactose/raffinose and β-gal. The strength of interaction (as indicated by the number of "+" signs) was judged by the blueness in the plates (indicator of LacZ expression).

[2] = biological target: B5; experiment: yeast interaction trap, LacZ blueness on plates
Method: as §2

[3] = biological target: T1, IL-1-R intracellular ligand protein …; experiment: yeast interaction trap, LacZ blueness on plates
Method: as §2

[4] = biological target: T2, IL-1-R intracellular ligand protein …; experiment: yeast interaction trap, LacZ blueness on plates
Method: as §2

[5] = biological target: T1, IL-1-R intracellular ligand protein …; experiment: yeast interaction trap, bait specificity test
Source text: as §1

[6] = biological target: T2, IL-1-R intracellular ligand protein …; experiment: yeast interaction trap, bait specificity test
Source text: as §1

| binding result [3] | binding result [4] | Binder | also measured |
| --- | --- | --- | --- |
|  |  | B1 | binding result (bicoid (unrelated bait)): no binding; binding result [1]: binds; binding result [2]: binds |
| binds | binds | B2 |  |
| binds |  | B3 |  |
| binds | binds | B4 |  |
| binds | binds | B5 |  |
| binds |  | B6 |  |
|  |  | B7 | binding result [5]: no binding; binding result [6]: no binding |
